Results reported in paper PMC3333870.

Biological target: T1, rLin28 (Lin28) (UniProt Q9H9Z2 1-209)
T1 sequence: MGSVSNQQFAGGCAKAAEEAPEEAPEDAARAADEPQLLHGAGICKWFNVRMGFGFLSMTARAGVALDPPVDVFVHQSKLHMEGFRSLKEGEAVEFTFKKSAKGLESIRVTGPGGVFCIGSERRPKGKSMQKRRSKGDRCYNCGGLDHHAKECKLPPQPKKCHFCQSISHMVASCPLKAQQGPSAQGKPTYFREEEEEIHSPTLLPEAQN
Assay: EMSA

B1: pre-let-7a-1 (structured_RNA)
RNA: GGGCUGAGGUAGUAGGUUGUAUAGUUUUAGGGUCACACCCACCACUGGGAGAUAACUAUACAAUCUACUGUCUUUCC
**Q.** B1 was tested. Which Kd did it give?
**A.** 1.99 µM
